Measurements taken from US9266939B2, “Compositions comprising natriuretic peptides and methods of use thereof” (Alexion Pharmaceuticals, Inc., priority 2010, dated 2016).
Bridge positions count the residues as written; N and C are the ends. Ends that are not written are not given here. Peptide text beside a SMILES is read from it.

How the values were obtained:
[1] = biological target: T1, neutral endopeptidase (NEP) (Homo sapiens, UniProt P08473); test: in vitro; details: isolated enzyme neprilysin, pH 7.5
NPR-B [2] = biological target: T2, NPR-B (Homo sapiens, UniProt P20594); test: Whole cell guanylyl cyclase (cGMP) assay, NPR-B; format: cell-based; set-up: expressed in transfected cells; details: for potency compared with CNP22: CNP22 position 17 point mutants, NPR-B whole cell cGMP assay (FIG. 30); for efficacy relative to CNP / potency relative to CNP (times less than that of CNP): NPR-B whole cell assay (FIG. 21C)
T2 sequence (P20594 23-1047): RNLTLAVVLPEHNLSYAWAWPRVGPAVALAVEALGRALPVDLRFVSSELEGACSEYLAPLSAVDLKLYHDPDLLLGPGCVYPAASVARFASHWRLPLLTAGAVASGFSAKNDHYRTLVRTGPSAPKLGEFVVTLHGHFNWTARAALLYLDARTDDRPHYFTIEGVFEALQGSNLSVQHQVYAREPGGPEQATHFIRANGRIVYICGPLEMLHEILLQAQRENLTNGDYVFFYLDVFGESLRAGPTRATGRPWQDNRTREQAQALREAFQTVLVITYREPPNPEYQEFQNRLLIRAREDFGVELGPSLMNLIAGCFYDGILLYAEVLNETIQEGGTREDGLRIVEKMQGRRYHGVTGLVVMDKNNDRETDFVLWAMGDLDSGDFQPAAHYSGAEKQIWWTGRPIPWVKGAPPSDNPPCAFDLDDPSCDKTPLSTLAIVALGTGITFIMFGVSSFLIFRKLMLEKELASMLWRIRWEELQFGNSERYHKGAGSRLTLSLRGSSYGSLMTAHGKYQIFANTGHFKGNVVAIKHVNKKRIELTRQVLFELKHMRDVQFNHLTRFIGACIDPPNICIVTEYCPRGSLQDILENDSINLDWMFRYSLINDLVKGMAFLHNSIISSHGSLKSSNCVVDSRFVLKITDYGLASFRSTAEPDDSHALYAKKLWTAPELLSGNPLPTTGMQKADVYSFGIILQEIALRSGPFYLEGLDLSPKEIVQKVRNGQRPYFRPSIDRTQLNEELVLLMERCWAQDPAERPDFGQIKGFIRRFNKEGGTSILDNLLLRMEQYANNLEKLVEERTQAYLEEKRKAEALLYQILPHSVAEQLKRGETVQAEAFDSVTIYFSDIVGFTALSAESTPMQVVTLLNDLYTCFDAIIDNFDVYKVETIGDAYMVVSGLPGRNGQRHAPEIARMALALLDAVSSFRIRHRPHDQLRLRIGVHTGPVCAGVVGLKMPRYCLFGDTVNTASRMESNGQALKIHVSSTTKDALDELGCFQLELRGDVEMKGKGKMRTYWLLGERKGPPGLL
Description: HEK293S cells in a semi-confluent 75 cm2 flask are transfected with 30 μg of plasmid DNA coding for the appropriate receptor, e.g., human NPR-B or NPR-A, using Lipofectamine-2000CD. Alternatively, a stable polyclonal HEK293 S cell line expressing either human NPR-B or NPR-A was used. 24 hours after transfection, cells are trypsinized and plated into 48-well plates at 1×10^5 cells/well. Guanylyl cyclase assay is carried out 24 hours post-plating. Cells are first incubated for 30 minutes at 37° C. with serum-free DMEM medium. Then, they are incubated in triplicate with or without increasing concentrations of reference or test proteins in serum-free DMEM supplemented with 1 mM IBMX and 0.5% BSA, at 37° C. for 30 minutes to one hour. CNP serves as a suitable reference for NPR-B, while ANP is a suitable reference for NPR-A. Finally, cells are washed with ice-cold PBS and solubilized in lysis buffer from Catchpoint cGMP kit (Molecular devices). Concentrations of cGMP in lysate are determined using the Catchpoint cGMP kit. Dose-response curves are analysed with GraphPad Prism 5 software using non-linear regression with four-parameter logistic equation.

[3] = biological target: T1, neutral endopeptidase (NEP)
NPR-B [4] = biological target: T2, NPR-B; test: Membrane guanylyl cyclase (cGMP) assay, NPR-B; format: biochemical
[5] = first NPR-B membrane assay (FIG. 21A)
[6] = second NPR-B membrane assay (FIG. 21B)

T1 sequence (P08473 whole entry): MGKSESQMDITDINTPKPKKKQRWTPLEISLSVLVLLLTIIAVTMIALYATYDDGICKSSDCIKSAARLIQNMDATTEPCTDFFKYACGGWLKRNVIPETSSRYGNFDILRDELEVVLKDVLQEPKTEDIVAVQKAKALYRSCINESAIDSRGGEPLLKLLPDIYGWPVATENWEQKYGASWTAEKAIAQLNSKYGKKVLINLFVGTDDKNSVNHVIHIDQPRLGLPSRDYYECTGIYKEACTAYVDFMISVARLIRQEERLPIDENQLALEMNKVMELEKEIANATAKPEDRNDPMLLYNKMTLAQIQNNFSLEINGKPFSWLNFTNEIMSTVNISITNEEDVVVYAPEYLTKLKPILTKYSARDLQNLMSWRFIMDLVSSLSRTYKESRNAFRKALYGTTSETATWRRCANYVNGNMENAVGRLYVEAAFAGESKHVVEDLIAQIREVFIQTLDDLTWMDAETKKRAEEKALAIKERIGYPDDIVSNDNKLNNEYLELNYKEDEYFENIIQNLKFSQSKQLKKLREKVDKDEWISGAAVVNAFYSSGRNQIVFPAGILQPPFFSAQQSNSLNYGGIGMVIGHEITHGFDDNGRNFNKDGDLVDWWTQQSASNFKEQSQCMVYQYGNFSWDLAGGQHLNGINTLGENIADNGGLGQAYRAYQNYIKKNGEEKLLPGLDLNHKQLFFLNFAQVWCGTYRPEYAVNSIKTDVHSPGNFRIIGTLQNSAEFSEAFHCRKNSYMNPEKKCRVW

DDDDDDGGGGSGGGGSGGGGGLSKGCFGLKLDRIGSMSGLGC (disulfide 26-42) [D6-14AAlinker-CNP [C3]]
remaining at 4 h [1]: 101%

CNP-R17: CNP22 point mutant at position 17; SEQ ID NO: 157 (GLSKGCFGLKLDRIGSRSGLGC; Synthetic Construct (CNP-R17))
potency compared with CNP22 (NPR-B [2]): improved potency

CC[C@H](C)[C@@H]1NC(=O)[C@H](CCCNC(=N)N)NC(=O)[C@H](CC(=O)O)NC(=O)[C@H](CC(C)C)NC(=O)[C@H](CCCCN)NC(=O)[C@H](CC(C)C)NC(=O)CNC(=O)[C@H](Cc2ccccc2)NC(=O)[C@@H](NC(=O)CNC(=O)[C@H](CCCCN)NC(=O)[C@H](CO)NC(=O)[C@H](CC(C)C)NC(=O)CN)CSSC[C@@H](C(=O)N[C@@H](Cc2c[nH]cn2)C(=O)N[C@@H](CO)C(=O)N[C@@H](CC(C)C)C(=O)N[C@@H](CCCNC(=N)N)C(=O)N[C@@H](CC(=O)O)C(=O)N2CCC[C@H]2C(=O)N[C@@H](CCCNC(=N)N)C(=O)N2CCC[C@H]2C(=O)N[C@@H](CC(N)=O)C(=O)N[C@@H](C)C(=O)N2CCC[C@H]2C(=O)N[C@@H](CO)C(=O)N[C@H](C(=O)N[C@@H](CO)C(=O)N[C@@H](C)C(=O)O)[C@@H](C)O)NC(=O)CNC(=O)[C@H](CC(C)C)NC(=O)CNC(=O)[C@H](CO)NC(=O)[C@H](CCSC)NC(=O)[C@H](CO)NC(=O)CNC1=O [CDNP-H1] (HELM PEPTIDE1{G.L.S.K.G.C.F.G.L.K.L.D.R.I.G.S.M.S.G.L.G.C.H.S.L.R.D.P.R.P.N.A.P.S.T.S.A}$PEPTIDE1,PEPTIDE1,6:R3-22:R3$$$V2.0)
sensitivity to NEP degradation [3]: comparable NEP sensitivity

CNP-L17: CNP22 point mutant at position 17; SEQ ID NO: 120 (GLSKGCFGLKLDRIGSLSGLGC; Synthetic Construct (CNP-L17 (C16)))
potency compared with CNP22 (NPR-B [2]): comparable potency to CNP22

CNP-T17: CNP22 point mutant at position 17; SEQ ID NO: 122 (GLSKGCFGLKLDRIGSTSGLGC; Synthetic Construct (CNP-T17 (C18)))
potency compared with CNP22 (NPR-B [2]): comparable potency to CNP22

Fc-CNP53-A: N-terminal Fc, Gly3 linker, CNP53 with position 48 mutated to alanine; SEQ ID NO: 518
efficacy relative to CNP (NPR-B [4]; [5]): slightly better efficacy than CNP | potency relative to CNP (times less than that of CNP) (NPR-B [4]; [5]): more than twice the potency as CNP | efficacy relative to CNP (NPR-B [4]; [6]): comparable efficacy | potency relative to CNP (times less than that of CNP) (NPR-B [4]; [6]): 1.3 times | efficacy relative to CNP (NPR-B [2]): comparable efficacy | potency relative to CNP (times less than that of CNP) (NPR-B [2]): 5.4 times

CNP-F17: CNP22 point mutant at position 17; SEQ ID NO: 119 (GLSKGCFGLKLDRIGSFSGLGC; Synthetic Construct (CNP-F17 (C15)))
potency compared with CNP22 (NPR-B [2]): comparable potency to CNP22

CC[C@H](C)[C@@H]1NC(=O)[C@H](CCCNC(=N)N)NC(=O)[C@H](CC(=O)O)NC(=O)[C@H](CC(C)C)NC(=O)[C@H](CCCCN)NC(=O)[C@H](CC(C)C)NC(=O)CNC(=O)[C@H](Cc2ccccc2)NC(=O)[C@@H](NC(=O)CNC(=O)[C@H](CCCCN)NC(=O)[C@H](CO)NC(=O)[C@H](CC(C)C)NC(=O)CN)CSSC[C@@H](C(=O)NCC(=O)N[C@@H](CO)C(=O)N[C@@H](CC(C)C)C(=O)N[C@@H](CCCNC(=N)N)C(=O)N[C@@H](CC(=O)O)C(=O)N2CCC[C@H]2C(=O)N[C@@H](CCCNC(=N)N)C(=O)N2CCC[C@H]2C(=O)N[C@@H](CC(N)=O)C(=O)N[C@@H](C)C(=O)N2CCC[C@H]2C(=O)N[C@@H](CO)C(=O)N[C@H](C(=O)N[C@@H](CO)C(=O)N[C@@H](C)C(=O)O)[C@@H](C)O)NC(=O)CNC(=O)[C@H](CC(C)C)NC(=O)CNC(=O)[C@H](CO)NC(=O)[C@H](CCSC)NC(=O)[C@H](CO)NC(=O)CNC1=O [CDNP-G1] (HELM PEPTIDE1{G.L.S.K.G.C.F.G.L.K.L.D.R.I.G.S.M.S.G.L.G.C.G.S.L.R.D.P.R.P.N.A.P.S.T.S.A}$PEPTIDE1,PEPTIDE1,6:R3-22:R3$$$V2.0)
sensitivity to NEP degradation [3]: comparable NEP sensitivity

Fc-CNP53-AAA: Fc-CNP53-A with residues 30 and 31 of CNP53 mutated to alanine; SEQ ID NO: 520
efficacy relative to CNP (NPR-B [4]; [5]): about two-thirds of CNP's efficacy | potency relative to CNP (times less than that of CNP) (NPR-B [4]; [5]): 1.5 times | efficacy relative to CNP (NPR-B [4]; [6]): comparable efficacy | potency relative to CNP (times less than that of CNP) (NPR-B [4]; [6]): 3.3 times | efficacy relative to CNP (NPR-B [2]): 74% | potency relative to CNP (times less than that of CNP) (NPR-B [2]): 14 times

CC[C@H](C)[C@@H]1NC(=O)[C@H](CCCNC(=N)N)NC(=O)[C@H](CC(=O)O)NC(=O)[C@H](CC(C)C)NC(=O)[C@H](CCCCN)NC(=O)[C@H](CC(C)C)NC(=O)CNC(=O)[C@H](Cc2ccccc2)NC(=O)[C@@H](NC(=O)CNC(=O)[C@H](CCCCN)NC(=O)[C@H](CO)NC(=O)[C@H](CC(C)C)NC(=O)CN)CSSC[C@@H](C(=O)N[C@@H](CCCCN)C(=O)N[C@@H](CO)C(=O)N[C@@H](CC(C)C)C(=O)N[C@@H](CCCNC(=N)N)C(=O)N[C@@H](CC(=O)O)C(=O)N2CCC[C@H]2C(=O)N[C@@H](CCCNC(=N)N)C(=O)N2CCC[C@H]2C(=O)N[C@@H](CC(N)=O)C(=O)N[C@@H](C)C(=O)N2CCC[C@H]2C(=O)N[C@@H](CO)C(=O)N[C@H](C(=O)N[C@@H](CO)C(=O)N[C@@H](C)C(=O)O)[C@@H](C)O)NC(=O)CNC(=O)[C@H](CC(C)C)NC(=O)CNC(=O)[C@H](CO)NC(=O)[C@H](CCSC)NC(=O)[C@H](CO)NC(=O)CNC1=O [CDNP-K1] (HELM PEPTIDE1{G.L.S.K.G.C.F.G.L.K.L.D.R.I.G.S.M.S.G.L.G.C.K.S.L.R.D.P.R.P.N.A.P.S.T.S.A}$PEPTIDE1,PEPTIDE1,6:R3-22:R3$$$V2.0)
sensitivity to NEP degradation [3]: slightly more sensitive to NEP than the other CDNP variants

CC[C@H](C)[C@@H]1NC(=O)[C@H](CCCNC(=N)N)NC(=O)[C@H](CC(=O)O)NC(=O)[C@H](CC(C)C)NC(=O)[C@H](CCCCN)NC(=O)[C@H](CC(C)C)NC(=O)CNC(=O)[C@H](Cc2ccccc2)NC(=O)[C@@H](NC(=O)CNC(=O)[C@H](CCCCN)NC(=O)[C@H](CO)NC(=O)[C@H](CC(C)C)NC(=O)CN)CSSC[C@@H](C(=O)N[C@@H](CC(N)=O)C(=O)N[C@@H](CO)C(=O)N[C@@H](CC(C)C)C(=O)N[C@@H](CCCNC(=N)N)C(=O)N[C@@H](CC(=O)O)C(=O)N2CCC[C@H]2C(=O)N[C@@H](CCCNC(=N)N)C(=O)N2CCC[C@H]2C(=O)N[C@@H](CC(N)=O)C(=O)N[C@@H](C)C(=O)N2CCC[C@H]2C(=O)N[C@@H](CO)C(=O)N[C@H](C(=O)N[C@@H](CO)C(=O)N[C@@H](C)C(=O)O)[C@@H](C)O)NC(=O)CNC(=O)[C@H](CC(C)C)NC(=O)CNC(=O)[C@H](CO)NC(=O)[C@H](CCSC)NC(=O)[C@H](CO)NC(=O)CNC1=O [CDNP-N1] (HELM PEPTIDE1{G.L.S.K.G.C.F.G.L.K.L.D.R.I.G.S.M.S.G.L.G.C.N.S.L.R.D.P.R.P.N.A.P.S.T.S.A}$PEPTIDE1,PEPTIDE1,6:R3-22:R3$$$V2.0)
sensitivity to NEP degradation [3]: comparable NEP sensitivity

CNP-Y17: CNP22 point mutant at position 17; SEQ ID NO: 158 (GLSKGCFGLKLDRIGSYSGLGC; Synthetic Construct (CNP-Y17))
potency compared with CNP22 (NPR-B [2]): improved potency
